Measurements: paper PMC4649164

Biological target: HIV gp120 (HIV-1)
Assay: SPR

## Griffithsin (from UniProt P84801 1-121) (natural protein)
  Kd: 0.798 nM
  koff: 0.00175 s⁻¹
  kon: 2.19e+06 M⁻¹ s⁻¹
